Assays:
KvAP channel = target: T1, KvAP channel (Aeropyrum pernix, UniProt Q9YDF8); assay: Electrophysiological assay of KvAP channels reconstituted into planar lipid bilayers; assay type: biochemical
T1 construct: made in house; host or cells: Escherichia coli
T1 sequence (Q9YDF8 14-295 limits assumed): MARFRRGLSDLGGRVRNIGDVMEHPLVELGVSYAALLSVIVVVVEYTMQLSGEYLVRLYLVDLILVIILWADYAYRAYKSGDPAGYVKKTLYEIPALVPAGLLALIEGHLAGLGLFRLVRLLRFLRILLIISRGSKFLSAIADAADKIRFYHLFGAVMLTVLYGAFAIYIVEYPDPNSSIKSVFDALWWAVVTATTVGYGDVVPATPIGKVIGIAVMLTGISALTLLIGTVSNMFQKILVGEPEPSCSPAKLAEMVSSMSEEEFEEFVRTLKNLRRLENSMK
Excerpt: KvAP channels were expressed in Escherichia coli, extracted with decylmaltoside, purified and reconstituted into planar lipid bilayers of 1-palmitoyl-2-oleoyl-phosphotidylglycerol (POPG) and 1-palmitoyl-2-oleoyl-phosphotidylethanolamine (POPE) for functional studies.
To examine the structural similarity of KvAP to eukaryotic K^+ channel pores, the ability of a small protein toxin from scorpion venom to inhibit the KvAP channel was examined.
To determine the orientation of channels incorporated into planar lipid bilayers, we used CTX, which causes inhibition by binding only to the extracellular side. KvAP channels open in response to membrane depolarization (e.g., when the voltage of the CTX-insensitive (intracellular) side of the membrane is made positive relative to the CTX-sensitive (extracellular) side. KvAP channels are strongly voltage-dependent, opening as a function of membrane voltage, similar to Shaker and other eukaryotic neuronal Kv channels.
The isolate voltage sensor immobilized to a resin in the column efficiently purifies toxins from tarantula venom (FIG. 3A).

[1] = target: T2, isolated voltage sensor domain (S1-S4) of KvAP (Aeropyrum pernix, UniProt Q9YDF8); assay: Binding of toxins to isolated voltage sensor domain immobilized on Co2+ affinity column, reverse phase HPLC of eluate; conditions: voltage sensor domain on Co2+ resin column versus control column without domain; elution with 400 mM imidazole
T2 construct: encoding Met1 to Lys147 was cloned into a pQE60 expression vector; made in house; host or cells: E. coli XL1-Blue
T2 sequence (Q9YDF8 with tags, fused parts or gaps): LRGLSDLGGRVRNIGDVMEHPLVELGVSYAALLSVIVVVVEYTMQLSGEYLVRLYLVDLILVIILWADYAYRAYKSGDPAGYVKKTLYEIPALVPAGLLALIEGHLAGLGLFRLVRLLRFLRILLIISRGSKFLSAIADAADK
Method: Isolated voltage sensor was expressed and purified according to Example 5. To generate the voltage sensor domain column for isolation of toxins, 0.1 ml of Co^2+ resin was washed with water and then equilibrated with Buffer A (20 mM Tris pH 8.0, 100 mM KCl, and 10 mM DM) in an eppendorf tube by 3-4 rounds of centrifugation (500 rpm) to collect resin, careful removal of the supernatant with a pipette and resuspension of the resin in either 1 ml of water or 0.4 ml of Buffer A.
Approximately 2 mg of voltage sensor domain was added to the equilibrated resin. The resin and voltage sensor domain protein were incubated for ˜15 minutes. The resin was then applied to a micro chromatography column (Biorad). Samples of the voltage sensor domain prior to addition to the resin and the flow through after addition of resin to the column was kept and later run on an SDS gel to ensure that an excess of protein has been added to the resin and saturated with protein. […]
Remaining protein was eluted from both columns with 0.1 ml of Buffer A containing 400 mM imidazole and reduced with 50 mM DTT at 37° C. for 2 hours to improve separation by reverse phase high performance liquid chromatography (HPLC). […] Peaks are collected and analyzed by MALDI-TOF mass spectrometry focusing on the low molecular weight range (˜800-10,000 Da).

VSTX1 (ECGKFMWKCKNSNDCCKDLVCSSRWKWCVLASPF)
inhibition of KvAP channel currents (KvAP channel; currents elicited by a +100 mV depolarization): inhibits KvAP channel currents
binding to the isolated voltage sensor domain [1]: binds to the domain

charybdotoxin [CTX, reference compound]
Kd (KvAP channel; KvAP channel in planar lipid bilayers, read-out: dissociation constant (Kd) for inhibition of the KvAP channel): ~400 µM
